From patent CN116745314A

Biological target: spike glycoprotein of live SARS-CoV-2 (isolate USA-WA1/2020) (SARS-CoV-2) (UniProt P0DTC2)
Experiment: cell-based or functional assay

For S2E12-LS (antibody), the EC50 (live SARS-CoV-2-luc neutralisation, MOI 0.1, 6 h) was 5 ng/mL, the EC90 (live SARS-CoV-2-luc neutralisation, MOI 0.1, 6 h) was 30 ng/mL and the IC50 (live SARS-CoV-2-luc neutralisation, MOI 0.1, 6 h) was 4.84 ng/mL.
